Test results published in the supplement of paper PMC9170038.

System: K4 kissing-loop RNA reporter
Assay: apparent KD of K4 kissing-loop reporter; higher = weaker reporter binding
Conditions: Eterna round: R107
Procedure: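 RNA-MaP round R107: designed RNA switches with theophylline, tryptophan, arginine or FMN aptamers are transcribed on-chip within common flanks. They are titrated with a labelled K4 kissing-loop RNA reporter in RNA-MaP buffer (100 mM Tris pH 7.5, 80 mM KCl, 4 mM MgCl2), without ligand or with the indicated ligand. Median apparent KD per design.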

[1] = input ligand: theophylline 20 uM
[2] = input ligand: tryptophan 2.4 mM
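Note: bound reporter read as fluorescence of individual clusters on recovered sequencing chips by microscopy, with normalized cluster intensities fitted with a binding model.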

GAUUGUGAUGGAAACAUCGCAAUCUCUGAAGGAGCGCGUGAAAACGCAGGUAGGUCGCAGGACGACAAAGACAGUGAUGUUGUCA [Ex Arginine A K4 1]
apparent KD of K4 kissing-loop reporter (input ligand: FMN 200 uM): 335 nM
apparent KD of K4 kissing-loop reporter (input ligand: arginine 13.2 mM): 319 nM
apparent KD of K4 kissing-loop reporter (input ligand: none): 311 nM
apparent KD of K4 kissing-loop reporter [1]: 369 nM
apparent KD of K4 kissing-loop reporter [2]: 380 nM

GAUUUAGAGGCGGCCGCCACUAGUGAUGUUAGUGAUGUUUGAUACUGAAUAUAUCUGCGUGUAGAUAGGACCGGGCCAGAUGGAG [eyerullin]
apparent KD of K4 kissing-loop reporter (input ligand: FMN 200 uM): 210 nM
apparent KD of K4 kissing-loop reporter (input ligand: arginine 13.2 mM): 171 nM
apparent KD of K4 kissing-loop reporter (input ligand: none): 186 nM
apparent KD of K4 kissing-loop reporter [1]: 184 nM
apparent KD of K4 kissing-loop reporter [2]: 180 nM

GAUUUAGAGGCGGCCGCCACUAGUGAUGUUAGUGAUGUUUGAUACUGAAUAUAUCUGCGUUUAGAUAGGACCGGGCCAGAUGGUG [ddcmullin]
apparent KD of K4 kissing-loop reporter (input ligand: FMN 200 uM): 261 nM
apparent KD of K4 kissing-loop reporter (input ligand: arginine 13.2 mM): 159 nM
apparent KD of K4 kissing-loop reporter (input ligand: none): 193 nM
apparent KD of K4 kissing-loop reporter [1]: 215 nM
apparent KD of K4 kissing-loop reporter [2]: 197 nM

GCAGGCGUAAAAGGAUAUCAGGCUCUCUAGACACGAGUGAUGUUUGUGUAGGUAACGUAAUAGGCAUGAGAAGGUUUCACUUAAA [theeternabot_sameState_KL_FMN_B_49]
apparent KD of K4 kissing-loop reporter (input ligand: FMN 200 uM): 608 nM
apparent KD of K4 kissing-loop reporter (input ligand: arginine 13.2 mM): 430 nM
apparent KD of K4 kissing-loop reporter (input ligand: none): 547 nM
apparent KD of K4 kissing-loop reporter [1]: 524 nM
apparent KD of K4 kissing-loop reporter [2]: 416 nM

GCAGUGAUGUUGCACGAGUAGGCUAGAGUACGAGGACCGGUACGGCCGCCACUCGUACGGAAGUCGCUAAUUUAUGGAAUGGUGA [#05 K4 Tryptophan A Same State]
apparent KD of K4 kissing-loop reporter (input ligand: FMN 200 uM): 713 nM
apparent KD of K4 kissing-loop reporter (input ligand: arginine 13.2 mM): 473 nM
apparent KD of K4 kissing-loop reporter (input ligand: none): 548 nM
apparent KD of K4 kissing-loop reporter [1]: 455 nM
apparent KD of K4 kissing-loop reporter [2]: 435 nM

GCAUGGAUCGCAGGAUAUAGAUCCGUGAGUGAAUUCUUGCCAGUGAGGAGUGAUGUUCCUCAUGGGCUAGAAGGGCGAUCCAUGC
apparent KD of K4 kissing-loop reporter (input ligand: FMN 200 uM): 140 nM
apparent KD of K4 kissing-loop reporter (input ligand: arginine 13.2 mM): 80.8 nM
apparent KD of K4 kissing-loop reporter (input ligand: none): 89.4 nM
apparent KD of K4 kissing-loop reporter [1]: 85.9 nM
apparent KD of K4 kissing-loop reporter [2]: 83.5 nM

GCCAGCAGUACUGAUACCAGACUGCAUGUAGUGAUGUUGCAUAAGGGCAUAGAUGUCUCAGUCCCUUGGCAGCGGUACUGUUGCA [#10 K4 Theophylline B Same State]
apparent KD of K4 kissing-loop reporter (input ligand: FMN 200 uM): 335 nM
apparent KD of K4 kissing-loop reporter (input ligand: arginine 13.2 mM): 252 nM
apparent KD of K4 kissing-loop reporter (input ligand: none): 330 nM
apparent KD of K4 kissing-loop reporter [1]: 199 nM
apparent KD of K4 kissing-loop reporter [2]: 241 nM

GCCAGUGCACGAAGGAGCGCCGUGACAGGUUACUGCCUUGGGCAGUGAUGUUGCUCAAUCUGGCAGGUAGGUCGCGUGCACUGGC
apparent KD of K4 kissing-loop reporter (input ligand: FMN 200 uM): 169 nM
apparent KD of K4 kissing-loop reporter (input ligand: arginine 13.2 mM): 147 nM
apparent KD of K4 kissing-loop reporter (input ligand: none): 170 nM
apparent KD of K4 kissing-loop reporter [1]: 175 nM
apparent KD of K4 kissing-loop reporter [2]: 177 nM

GCCGCCGCGGCAGGAUAUAGACAUUGAGUGAUGUUCGGUGCUUAUCCAAAGUGCUGUUUCGGCCAACUAGAAGGGCCGCGGCGGC
apparent KD of K4 kissing-loop reporter (input ligand: FMN 200 uM): 204 nM
apparent KD of K4 kissing-loop reporter (input ligand: arginine 13.2 mM): 94 nM
apparent KD of K4 kissing-loop reporter (input ligand: none): 119 nM
apparent KD of K4 kissing-loop reporter [1]: 103 nM
apparent KD of K4 kissing-loop reporter [2]: 119 nM

GCCGUACGCAUGGAUACCAGAGAUGUUAAUCUCGAUGCCAGUGAUGUUGGCUUUAGCAUACUCCCUUGGCAGCCAUGCGUACGGC
apparent KD of K4 kissing-loop reporter (input ligand: FMN 200 uM): 312 nM
apparent KD of K4 kissing-loop reporter (input ligand: arginine 13.2 mM): 241 nM
apparent KD of K4 kissing-loop reporter (input ligand: none): 292 nM
apparent KD of K4 kissing-loop reporter [1]: 186 nM
apparent KD of K4 kissing-loop reporter [2]: 267 nM

GCCGUACGCAUGGAUACCAGCAAUAUGCUACGUUGUAGUAGUAUAACCAGUGAUGUUGGAUGCCCUUGGCAGCCAUGCGUACGGC
apparent KD of K4 kissing-loop reporter (input ligand: FMN 200 uM): 736 nM
apparent KD of K4 kissing-loop reporter (input ligand: arginine 13.2 mM): 673 nM
apparent KD of K4 kissing-loop reporter (input ligand: none): 897 nM
apparent KD of K4 kissing-loop reporter [1]: 349 nM
apparent KD of K4 kissing-loop reporter [2]: 855 nM

GCCGUACGCAUGGAUACCAGCCGACAUGAUAUUUAGCUGGUGUCGUAGUGAUGUUACGAAGGCCCUUGGCAGCCAUGCGUACGGC
apparent KD of K4 kissing-loop reporter (input ligand: FMN 200 uM): 83.7 nM
apparent KD of K4 kissing-loop reporter (input ligand: arginine 13.2 mM): 72.7 nM
apparent KD of K4 kissing-loop reporter (input ligand: none): 78.2 nM
apparent KD of K4 kissing-loop reporter [1]: 79.1 nM
apparent KD of K4 kissing-loop reporter [2]: 78.7 nM

GCCGUACGCAUGGAUACCAGUUGCGAAGUGAUGUUUCGGGCGAUCAAAGGAUCGCCCAACAACCCUUGGCAGCCAUGCGUACGGC
apparent KD of K4 kissing-loop reporter (input ligand: FMN 200 uM): 216 nM
apparent KD of K4 kissing-loop reporter (input ligand: arginine 13.2 mM): 42.5 nM
apparent KD of K4 kissing-loop reporter (input ligand: none): 119 nM
apparent KD of K4 kissing-loop reporter [1]: 108 nM
apparent KD of K4 kissing-loop reporter [2]: 133 nM

GCCGUAGAUGGAAGGAGCGUGGUUAAUGUAAGUGAUGUUUACGAGGUCAACAAUUGACCGCCACAGGUAGGUCGCCAUCUACGGC
apparent KD of K4 kissing-loop reporter (input ligand: FMN 200 uM): 60.4 nM
apparent KD of K4 kissing-loop reporter (input ligand: arginine 13.2 mM): 57.4 nM
apparent KD of K4 kissing-loop reporter (input ligand: none): 57.2 nM
apparent KD of K4 kissing-loop reporter [1]: 53.1 nM
apparent KD of K4 kissing-loop reporter [2]: 56.4 nM

GCCGUAGAUUGAAGGAGCGGGCCGUAGUGAUGUUACGCCAAUUUAUCUUUUCUUGAUGUGGCCCAGGUAGGUCGCAAUCUACGGC
apparent KD of K4 kissing-loop reporter (input ligand: FMN 200 uM): 241 nM
apparent KD of K4 kissing-loop reporter (input ligand: arginine 13.2 mM): 204 nM
apparent KD of K4 kissing-loop reporter (input ligand: none): 216 nM
apparent KD of K4 kissing-loop reporter [1]: 207 nM
apparent KD of K4 kissing-loop reporter [2]: 193 nM

GCCGUAGAUUGAAGGAGCGGUAUGGGCGUUGGCUGAGUGAUGUUCAGGGAAAGUGGCUUCUACCAGGUAGGUCGCAAUCUACGGC
apparent KD of K4 kissing-loop reporter (input ligand: FMN 200 uM): 164 nM
apparent KD of K4 kissing-loop reporter (input ligand: arginine 13.2 mM): 129 nM
apparent KD of K4 kissing-loop reporter (input ligand: none): 157 nM
apparent KD of K4 kissing-loop reporter [1]: 170 nM
apparent KD of K4 kissing-loop reporter [2]: 137 nM

GCCUAGGCUCGAAAGAGCCUAGGCUUGUCUCAGGAUAUCUGGAAACAGAGAAGGGAGCUACUAGUGAUGUUAGGAAUUCCCUAAG
apparent KD of K4 kissing-loop reporter (input ligand: FMN 200 uM): 149 nM
apparent KD of K4 kissing-loop reporter (input ligand: arginine 13.2 mM): 122 nM
apparent KD of K4 kissing-loop reporter (input ligand: none): 112 nM
apparent KD of K4 kissing-loop reporter [1]: 92.3 nM
apparent KD of K4 kissing-loop reporter [2]: 98 nM

GCCUAGGCUCGAAAGAGCCUAGGCUUUACUCAGGAUAUCUGGAAACAGAGAAGGGAGCUACUAGUGAUGUUAGGAAUUCCCUAAG
apparent KD of K4 kissing-loop reporter (input ligand: FMN 200 uM): 45.9 nM
apparent KD of K4 kissing-loop reporter (input ligand: arginine 13.2 mM): 80.3 nM
apparent KD of K4 kissing-loop reporter (input ligand: none): 133 nM
apparent KD of K4 kissing-loop reporter [1]: 141 nM
apparent KD of K4 kissing-loop reporter [2]: 87.8 nM

GCCUUUUUUCGAGCUACAGCUCGAUUUGGUCGAGGACCGGUACGGCCGCCACUCGAAUGAUAGUGAUGUUAUCAUUAUGGCAUAA [JR_ExcTryptoA_Sub023]
apparent KD of K4 kissing-loop reporter (input ligand: FMN 200 uM): 196 nM
apparent KD of K4 kissing-loop reporter (input ligand: arginine 13.2 mM): 166 nM
apparent KD of K4 kissing-loop reporter (input ligand: none): 176 nM
apparent KD of K4 kissing-loop reporter [1]: 186 nM
apparent KD of K4 kissing-loop reporter [2]: 152 nM

GCGCGUCAUGUCAGCGGUGACACUGUCGAUACCAGCGCCGGAAGGCGCCCUUGGCAGCGACGUGCUGGAGUGAUGUUCCAGCGUC [#2 Exclusion - Theophylline A Attempt #21 (HarryS)]
apparent KD of K4 kissing-loop reporter (input ligand: FMN 200 uM): 177 nM
apparent KD of K4 kissing-loop reporter (input ligand: arginine 13.2 mM): 107 nM
apparent KD of K4 kissing-loop reporter (input ligand: none): 140 nM
apparent KD of K4 kissing-loop reporter [1]: 130 nM
apparent KD of K4 kissing-loop reporter [2]: 134 nM

GCGCGUCAUGUCAGCGGUGACUAUGUCGAUACCAGCAGGGAAACCUGCCCUUGGCAGCGACGCGCUGGAGUGAUGUUCCGACGGC [#2 Exclusion - Theophylline A Attempt #8 (HarryS)]
apparent KD of K4 kissing-loop reporter (input ligand: FMN 200 uM): 165 nM
apparent KD of K4 kissing-loop reporter (input ligand: arginine 13.2 mM): 153 nM
apparent KD of K4 kissing-loop reporter (input ligand: none): 154 nM
apparent KD of K4 kissing-loop reporter [1]: 173 nM
apparent KD of K4 kissing-loop reporter [2]: 145 nM

GCGCGUCAUGUCAGCGGUGACUCUGUCGAUACCAGCGCCGCAAGGCGCCCUUGGCAGCGACGCGCUGGAGUGAUGUUCCAGCGUG [#2 Exclusion - Theophylline A Attempt #13 (HarryS)]
apparent KD of K4 kissing-loop reporter (input ligand: FMN 200 uM): 157 nM
apparent KD of K4 kissing-loop reporter (input ligand: arginine 13.2 mM): 142 nM
apparent KD of K4 kissing-loop reporter (input ligand: none): 160 nM
apparent KD of K4 kissing-loop reporter [1]: 150 nM
apparent KD of K4 kissing-loop reporter [2]: 145 nM
